The source of these data is patent publication US20180280504A1, “GLYCAN-INTERACTING COMPOUNDS AND METHODS OF USE” (SIAMAB THERAPEUTICS, INC., priority 2014, published 2018).

Several values for one entry are separate records, joined by “and”; a condition that tells them apart may be missing. Equal entries are not always repeated.

One assay in a line: Glycan array, GcSTn. The format is binding. To be noted: summary table. The method, then: (§1) Optimized glycan arrays comprise 71 chemically synthesized and well-defined glycans, most of which comprise Neu5Ac and Neu5Gc glycan pairs.
(§2) 300 ml of epoxy blocking buffer is prepared by combining 15 ml of 2 M Tris buffer (pH 8) with 0.9 ml of 16.6 M ethanolamine and 284.1 ml of distilled water. The solution was brought to a final pH of 9.0 with HCl. The solution is filtered using a […] nitrocellulose membrane. The epoxy buffer solution as well as 1 L of distilled water are pre-warmed to 50° C. Glass slides are arranged in a slide holder and quickly submerged in a staining tub with the warmed epoxy blocking buffer. Slides are incubated in the epoxy blocking buffer for 1 hour at 50° C. with periodic shaking to deactivate epoxy binding sites. Next, slides are rinsed and blocked with PBS with 1% OVA at 25° C. for one hour. Serum samples with polyclonal antibodies (1:1000) or purified monoclonal antibodies (1 ug/mL), are diluted in PBS with 1% OVA and added to the glycan array for one hour at 25° C. After extensive washing, binding of antibodies are detected by incubating glycan microarray slides with Cy3-conjugated anti-mouse IgG (Jackson Immunoresearch, West Grove, Pa.) for one hour. Slides are then washed extensively, dried and scanned with a Genepix 4000B scanner (Laser at 100%; gain at 350; 10 μm pixels). Raw data from scanned images are extracted using the Genepix software and analysis of raw data is carried out.

For assay [1], the system named is ST6GalNAc 1 transfected MDA-MB-231 cells (MDA-STn+). The assay is described as follows: Flow cytometry-based analysis of antibody binding, STn+ cells. The arrangement: species or system human. The method, then:
Flow cytometry-based analysis is carried out to elucidate the curve-dose response for binding of antibodies to cell surface antigens. For these analyses, three cell lines are employed.
MDA-MB-231 cells are human breast cancer cells. They are grown in Earle's Minimum Essential Medium supplemented with 10% fetal calf serum (FCS), 100 μg/ml penicillin, 100 UI/ml streptomycin and 45 μg/ml gentamycin. MCF-7 cells are also human breast cancer cells and are grown under the same conditions as MDA-MB-231 cells. Stably transfected versions of MDA-MB-231 and MCF-7 cells (clone TAH3.P10 for MDA-MB-231 cells and clone A12.1 for MCF-7 cells) that over express GalNAc α2,6-sialyltransferase (ST6GalNAc 1,) are also cultured under the same conditions with the exception of an added 1 mg/ml of G418 to support cells expressing the transgene. ST6GalNAc 1 is an enzme capable of sialylating GalNAc. As a result of over expression, transfected cells express high levels of Neu5Ac-STn (see Julien, S. et al., Glycoconjugate journal. 2001. 18, 883-93; the contents of which are herein incorporated by reference in their entirety). E3 cells are murine breast cancer cells. They are cultured in Dulbecco's E4 medium with 10% FCS. Stably transfected versions of E3 cells expressing high levels of Neu5Gc-STn (E3-STn) are cultured with 600 μg/ml of G418 and 200 μg/ml hygromycin. During growth and maintenance of experimental cells, trypsin is not used for cell passaging.
For analysis, cells are harvested using StemPro Accutase (Life Technologies, Carlsbad, Calif.) and washed with PBS comprising 5% FBS before pelleting by light centrifugation. Cell numbers and viability are determined by trypan blue dye exclusion analysis and cell concentrations are adjusted to 5×10^6 cells/ml in PBS with 5% FBS. 50 μl of cells are added to each well of an assay plate. Cells are combined with 50 μl solutions of antibody being analyzed or control antibodies and incubated for 1 hour at 4° C. Cells are washed and pelleted twice with PBS with 5% FBS before being treated with 100 μl of PBS with 5% FBS comprising a 1:1,500 dilution of anti-mouse IgG (Southern Biotech, Birmingham, Ala.,) conjugated to allophycocyanin (APC). Cells are incubated for 30 min at 4° C. before washing and resuspending in 200 μl of propidium iodide (PI) diluted 1:1000 in PBS with 5% FBS. Treated cells are then subjects to flow cytometry analysis and 10,000 events are acquired for each sample.

A short description of another assay: Glycan array, AcSTn. The format is binding. To be noted: summary table. The method, then: as §1, §2
The nature of assay [2]: Glycan array STn specificity and anti-STn antibody group assignment. Type of assay: binding. To be noted: summary table. The method, then:
as §2
Based on characterization data, anti-STn antibodies developed from Group 6 and Group 8 mice were categorized by anti-STn group number. In some cases, antibodies were assigned to Group 1. Group 1 antibodies according to the invention are antibodies capable of binding AcSTn and GcSTn. Such antibodies may have the ability to associate with a wider range of STn structures. The large oval in FIG. 1A indicates the portion of STn recognized by Group 1 antibodies. Antibodies were assigned to Group 2 based on their ability to bind STn as well as some related structures that include an O-linkage to serine or threonine. The large oval in FIG. 1B indicates the portion of STn recognized by Group 2 antibodies. In some cases, Group 2 antibodies may bind to glycans comprising a sialylated galactose residue. Some Group 2 antibodies preferably bind to structures with AcSTn over structures with GcSTn. Further anti-STn antibodies were assigned to Group 3. Group 3 antibodies are antibodies capable of binding STn, but may also bind a broader set of related structures. […] The large oval in FIG. 1C indicates the portion of STn recognized by Group 3 antibodies. Finally, some anti-STn antibodies were assigned to Group 4. Group 4 antibodies are capable of binding to both AcSTn and GcSTn as well as the un-sialylated Tn antigen, and therefore have broader specificity. The large oval in FIG. 1D indicates the portion of STn recognized by Group 4 antibodies. […] Also listed in the Table is the antibody Isotype for each antibody as determined by the IsoStrip mouse monoclonal antibody isotyping kit (Roche Diagnostics GmbH, Manheim, Germany).

B1: S3F: 3F1 variable domains combined with IgG2a constant domains; heavy chain SEQ ID NO: 63, light chain SEQ ID NO: 64 (antibody)
heavy: QVQLQQSDAELVKPGASVKISCKASGYTFTDHAIHWVKQKPEQGLDWIGYISPGNGDIKYNEKFKDKVTLTADKSSSTACMHLNSLTSEDSAVYFCKRSLLALDYWGQGTTLTVSSAKTTAPSVYPLAPVCGDTTGSSVTLGCLVKGYFPEPVTLTWNSGSLSSGVHTFPAVLQSDLYTLSSSVTVTSSTWPSQSITCNVAHPASSTKVDKKIEPRGPTIKPCPPCKCPAPNLLGGPSVFIFPPKIKDVLMISLSPIVTCVVVDVSEDDPDVQISWFVNNVEVHTAQTQTHREDYNSTLRVVSALPIQHQDWMSGKEFKCKVNNKDLPAPIERTISKPKGSVRAPQVYVLPPPEEEMTKKQVTLTCMVTDFMPEDIYVEWTNNGKTELNYKNTEPVLDSDGSYFMYSKLRVEKKNWVERNSYSCSVVHEGLHNHHTTKSFSRTPGK
light: DIVMTQSHKFMSTSVGDRVSITCKASQDVGTNIAWYQQKPGRSPKVLIYSASTRHTGVPDRFTGSGSGTDFTLTISNVQSEDLTDYFCQQYSSFPLTFGVGTKLELKRADAAPTVSIFPPSSEQLTSGGASVVCFLNNFYPKDINVKWKIDGSERQNGVLNSWTDQDSKDSTYSMSSTLTLTKDEYERHNSYTCEATHKTSTSPIVKSFNRNEC
Broadly, the EC50 is the concentration at which the effect is half-maximal. For B1, the “Glycan Array GcSTn” value in the assay “Glycan array, GcSTn” turned out to be 31%. Moreover, the “EC50, flow cytometry binding to cell-associated STn” value in assay [1] (ST6GalNAc 1 transfected MDA-MB-231 cells, APC anti-mouse IgG) is 2.051 nM and 2.13 nM and 1.94 nM. Also, the EC50 in assay [1] (summary table, unit not printed (same values in nM), read-out: Flow cytometry (EC50) MDA-STn+) is 1.06 nM. Besides, the “Glycan Array AcSTn” value in the assay “Glycan array, AcSTn” is recorded as 63%. Also, the “Glycan Array STn Specificity” value in assay [2] is given as 94%.
